From US20120058102A1

Molecular target: ZFHD-FKBP fusion with 3 copies of the drug binding domain (3xFKBP)
Assay: cell-based or functional assay

FRB-TA fusion (FRB fragment of FRAP/mTOR fused to a portion of human NF-KB p65 as transcription activator)
luciferase expression in mice (Xenogen imaging) after rapamycin 2 mg/kg IP, against pre-induction; Group 2, transcription factor unit under the CMV promoter: > 2 logs | luciferase expression in mice (Xenogen imaging) after rapamycin 2 mg/kg IP, against pre-induction; Group 4, transcription factor unit under the TBG promoter: > 100 fold
